Source: US20030165468A1, “Regulated vectors for controlling DNA hypermutability in eukaryotic cells” (priority 2002, published 2003)

B1: PMS134: dominant negative mismatch repair protein, expressed from pIRES-PMS134-TK with a C-terminal V5 tag (protein, listed as Homo sapiens)
chain: RGGSGVASMERAESSSTEPAKAIKPIDRKSVHQICSGQVVLSLSTAVKELVENSLDAGATNIDLKLKDYGVDLIEVSDNGCGVEEENFEGLTLKHHTSKIQEFADLTQVETFGFRGEALSSLCALSDVTISTCHASAKVGT
modifications: C-terminal V5 tag

Key:
[1] = tested on: cells expressing the HSV-TK gene product; assay: Negative selection with ganciclovir of cultures containing pIRES-PMS134-TK; type: cell-based, human; settings: HEK293 cultures with pIRES-PMS134-TK; ganciclovir for 5 days, then 10 days in growth media alone
Method: Once a hypermutable cell line is developed, it can be screened for to identify subclones with novel phenotypes for target discovery and/or product development. Once the subclone with a desired phenotype is identified, it is important to be able to restore the DNA stability within the host cell. In order to accomplish this, one must remove or completely suppress the expression of the mutator gene. Briefly, cultures are grown in the presence of the prodrug ganciclovir (Sigma), which kills cells expressing the HSV-TK gene product for 5 days. After 5 days, cells are grown for 10 days in growth media alone at which time greater than 95% of cells die off. Resistant clones are then picked and expanded in 10 cm petri dishes. Cells are grown for 3 weeks and then a portion is analyzed for PMS134 expression by western blot and RT-PCR. […] Analysis of cells after two months of culture have not observed re-expression of the PMS 134 gene using western or RT-PCR analysis (not shown). […] No de novo instable microsatellites are observed in the GR cells in contrast to the parental IRES-PMS134-TK line as expected.

[2] = tested on: 293 cells; assay: Microsatellite instability of endogenous loci using the BAT26 diagnostic marker; type: cell-based, human; settings: PMS134 expressing 293 cells
Method: Next, selected clones expressing PMS134 are expanded and analyzed for MMR deficiency using methods as previously described. Briefly, cells containing the pIRES-PMS134-TK vector or control were measured for microsatellite instability of endogenous loci using the BAT26 diagnostic marker as described (Hoang J. M. et al. (1997) Cancer Res. 57:300-303). Cells are harvested and genomic DNA is isolated using the salting out method (Nicolaides, N. C. et al. (1991) Mol. Cell. Biol. 11:6166-6176). DNAs are diluted by limiting dilution to determine the level of sensitivity of the assay. DNAs are PCR amplified using the BAT26F: 5′-[…]-3′ (SEQ ID NO: 25) and the BAT26R: 5′-[…]-3′ (SEQ ID NO: 26) primers in buffers as described (Nicolaides, N. C. et al. (1995) Genomics 30:195-206). Briefly 1 pg to 100 ngs of DNA is amplified using the following conditions: 94° C. for 30 sec, 58° C. for 30 sec, 72° C. for 30 sec for 30 cycles. PCR reactions are electrophoresed on 12% polyacrylamide TBE gels (Novex) or 4% agarose gels and stained with ethidium bromide.
To measure for microsatellite stability in 293 cells, DNAs were amplified using the reaction conditions above.

Row | Molecule | cells die off [1] | effect on mismatch repair (MMR) ([2]; biochemical and genetic manifestations of MMR deficiency) | microsatellite instability (altered BAT26 alleles) ([2]; no altered alleles in MMR-proficient control cells)
1 | Nc1nc(O)c2ncn(COC(CO)CO)c2n1 [ganciclovir] | greater than 95% | – | –
2 | B1 | – | robust dominant negative effect | a number of alterations
